Laboratory results from PMC10361598 (Science Advances, 2023).
Where two headings read alike, the source gives them in different places.

Tests used:
CXCL12 [1] = target: T1, CXCL12 (UniProt P48061 22-93); test: graphene field-effect transistor array
CXCL12 [2] = target: T1, CXCL12; test: graphene field-effect transistor array; remark: listed apart in the source

T1 sequence (P48061 22-93): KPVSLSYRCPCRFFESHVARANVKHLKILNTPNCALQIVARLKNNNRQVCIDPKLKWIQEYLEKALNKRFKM

Kd (CXCL12 [1]): 24.8 ± 13 nM | Kd (CXCL12 [2]): 20.1 ± 9.1 nM
B1: CXCR4^QTY-Fc (Fc fusion)
chain: PSTCSKPTCPPPELLGGPSVFIFPPKPKDTLMISRTPEVTCVVVDVSQDDPEVQFTWYINNEQVRTARPPLREQQFNSTIRVVSTLPITHQDWLRGKEFKCKVHNKALPAPIEKTISKARGQPLEPKVYTMGPPREELSSRSVSLTCMINGFYPSDISVEWEKNGKAEDNYKTTPAVLDSDGSYFLYNKLSVPTSEWQRGDVFTCSVMHEALHNHYTQKSISRSPGK
modifications: RED-NHS fluorescent label (Monolith NT Protein Labeling Kit RED-NHS), in the MST only
